Results published in patent US20190300610A1.

Assays:
Experiment in all cases: reported; reported KD
mFcRn = target: mFcRn
mFcgRIIb = target: mFcgRIIb
mFcgRIII = target: mFcgRIII
mFcgRIV = target: mFcgRIV

Row | Kd (mFcRn) | Kd (mFcgRIIb) | Kd (mFcgRIII) | Kd (mFcgRIV) | Substance
1 | 72 nM | 1100 nM | 9300 nM | 280 nM | hIgG1
2 | 63 nM | 7900 nM | 9700 nM | – | hIgG2
3 | 230 nM | 700 nM | 1300 nM | 170 nM | hIgG3
4 | 116 nM | 11000 nM | 21000 nM | 26000 nM | hIgG4
5 | 1160 nM | 301 nM | 3200 nM | – | mIgG1
6 | 490 nM | 2390 nM | 1460 nM | 34.5 nM | mIgG2a
7 | 545 nM | 448 nM | 1560 nM | 59 nM | mIgG2b
8 | 140 nM | – | – | – | mIgG3
